Laboratory results published in the supplement of paper PMC10724198.
± gives the standard deviation of the averaged measurements.

Tested on: Saccharomyces cerevisiae
Test: protein stability index of tFT-peptide fusion (C-terminal peptide) (PSI (0-1 scale)); higher = more stable (slower turnover)
Conditions: genetic background: wild type; temperature: 30 C
Experimental: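 Multiplexed protein stability (MPS) profiling in S. cerevisiae. Random 12-aa peptides (tFT-X12 library) are fused to the C-terminus of a sfGFP-mCherry tandem fluorescent timer, after mCherry and a GGGS linker. Cells are FACS-sorted into 8 mCherry/sfGFP bins and deep-sequenced. The protein stability index (PSI) is the read-weighted bin average, scaled from 0 (unstable) to 1 (stable). Only peptides with >10 reads are reported; cells were grown at 30 °C in SC-His with glucose.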
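Also: PSI is a weighted mean of sequencing reads over stability bins, variants kept only with over 10 reads, mCherry proximal and sfGFP distal, peptide attached via GGGS linker.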

Sequence | protein stability index
EVVGILSSVNIA | 0.647 ± 0.03
EVWMGIRSLSVV | 0.634 ± 0.096
EWCAVYDQGNRF | 0.818 ± 0.11
EWGWGRIVNGRE | 0.6869 ± 0.0032
EWNKMTKEKNVI | 0.686 ± 0.017
EWNWRSVYGFGE | 0.748 ± 0.027
EYTRGIRKTRRA | 0.608 ± 0.051
FACLGPLRRRLG | 0.682 ± 0.012
FAECVCVVCPLV | 0.6319 ± 0.0053
FAFLPYKGISSS | 0.682 ± 0.05
FALERLWFMSVG | 0.67 ± 0.031
FALPPPPHLNPP | 0.6248 ± 0.0021
FAPFVPGPSIKY | 0.705 ± 0.074
FCCTPAPVPPST | 0.689 ± 0.016
FCEASSSSRISA | 0.744 ± 0.088
FCFFLLGLFCNL | 0.6 ± 0.062
FCFLSALTCLCA | 0.589 ± 0.021
FCGFLFRLSSVL | 0.626 ± 0.025
FCGLWGVGGVAE | 0.704 ± 0.025
FCLAPMLLPGSF | 0.6785 ± 0.0064
FCPSLFLNPHSC | 0.6739 ± 0.00084
FCSDRPWGPCRR | 0.579 ± 0.08
FCSSSSFMCFVQ | 0.629 ± 0.0082
FDAWTHAGMYNW | 0.757 ± 0.058
FDPSFLSVCRSK | 0.72 ± 0.021

Sequence | protein stability index
FDRQQDLTGMEM | 0.769 ± 0.078
FERVLVFENRKY | 0.728 ± 0.051
FESYLRLGLGGR | 0.667 ± 0.09
FEVSGYRNGRAL | 0.694 ± 0.0074
FFDSPHCRYACV | 0.744 ± 0.009
FFFYFPSLNSFV | 0.696 ± 0.073
FFPLRLLPLVPR | 0.645 ± 0.0063
FFPPPPPATPPA | 0.663 ± 0.072
FFSFTTPHLSFA | 0.688 ± 0.054
FFSISPLLPLPF | 0.714 ± 0.2
FFSLVHVLFYGF | 0.54037 ± 0.00016
FFTFTMSIPRWL | 0.617 ± 0.055
FFVCCGTRLIGL | 0.716 ± 0.04
FFVRVVGDLRWE | 0.583 ± 0.019
FFWGRFCLGLWS | 0.568 ± 0.067
FFWGVFFLGLGW | 0.566 ± 0.071
FGCLFFSPLSIH | 0.745 ± 0.043
FGCSRRERKGRG | 0.826 ± 0.016
FGDRGLGIIYFK | 0.7277 ± 0.0023
FGFYTYFRPGLG | 0.698 ± 0.017
FGGGGRGGLLWC | 0.764 ± 0.06
FGGGSWSMRWSW | 0.639 ± 0.024
FGGGWGGGVVLV | 0.691 ± 0.0086
FGGNISIPRSCD | 0.7233 ± 0.004
FGLWSSCGWWWT | 0.64 ± 0.041

Sequence | protein stability index
FGNFCCRWSLGP | 0.66 ± 0.12
FGPAQGYCLVGA | 0.544 ± 0.025
FGRDTDIYLASL | 0.691 ± 0.037
FGSLCPRAHSLV | 0.71 ± 0.011
FGSLMFCLLPLH | 0.6527 ± 0.0026
FGSRYLGVVSGC | 0.656 ± 0.037
FGVGWGDGFFGV | 0.716 ± 0.059
FHGSIVQLTFRA | 0.603 ± 0.047
FHVFTRTVGSVL | 0.643 ± 0.075
FIHVPAYGNVCV | 0.611 ± 0.058
FISPLNFPARPS | 0.7181 ± 0.0015
FIWRFYSLPLGC | 0.623 ± 0.069
FLASPHPPGLSP | 0.693 ± 0.033
FLCILTNGCCYQ | 0.765 ± 0.052
FLFASSGFLGRF | 0.67 ± 0.036
FLFGLGEIDGVR | 0.84 ± 0.034
FLFPTLSPITGC | 0.612 ± 0.05
FLLNPPSLPCYY | 0.727 ± 0.034
FLLPAGLWSSCC | 0.66 ± 0.043
FLLSFPCAHFLL | 0.598 ± 0.056
FLLSILPFISFC | 0.527 ± 0.1
FLLVLVPFCALF | 0.547 ± 0.11
FLNLPLSAFVLL | 0.583 ± 0.062
FLPHSPSLPQLP | 0.67 ± 0.013
FLPPPLAAPFLF | 0.669 ± 0.059

Sequence | protein stability index
FLQAKSQGEHFR | 0.694 ± 0.012
FLRGSSKSISAR | 0.677 ± 0.061
FLSAGLSILAAP | 0.683 ± 0.043
FLSFECRFPFQW | 0.795 ± 0.069
FLSFRLCTAAPV | 0.559 ± 0.031
FLSLGVIARYFL | 0.6325 ± 0.0042
FLSPPSPWPSFP | 0.688 ± 0.059
FLSSPPPPLRVP | 0.694 ± 0.054
FLTPPIPLFSRL | 0.783 ± 0.058
FLTPPSLSLPPP | 0.68 ± 0.0084
FMDLVRSVPTGC | 0.706 ± 0.046
FMFFMGLFVGGW | 0.5401 ± 0.0026
FMSRDPKDDTET | 0.685 ± 0.076
FMYSGIVAIPRG | 0.661 ± 0.025
FNCIFHMLRFLR | 0.656 ± 0.074
FPCIPAAPPIFL | 0.71 ± 0.015
FPFFSSIPPRVV | 0.574 ± 0.069
FPFLPPRSVSPP | 0.696 ± 0.12
FPGGGARAGVGV | 0.724 ± 0.025
FPGVRNGSRFPP | 0.637 ± 0.0067
FPLLAPAVSPHT | 0.662 ± 0.071
FPPFPPLVPSPP | 0.742 ± 0.0049
FPPIDLPPPSPS | 0.687 ± 0.027
FPPLFPLSTFLL | 0.56 ± 0.04
FPPLPPPPPPLN | 0.743 ± 0.065

Sequence | protein stability index
FPPPPFFFIPLP | 0.724 ± 0.048
FPPRPPPSPSAH | 0.675 ± 0.027
FPPTGPPYFPPT | 0.615 ± 0.062
FPPYHTSSGFDA | 0.733 ± 0.066
FPSLPSPSPSSH | 0.684 ± 0.031
FPTFSPRPHPLS | 0.72 ± 0.0098
FPTSPPLIALLD | 0.6692 ± 0.0029
FPVSLSSVRMFV | 0.6254 ± 0.0032
FPWPDLPSLLPQ | 0.8 ± 0.14
FQMLPLGHQFPQ | 0.736 ± 0.0087
FRAAGFLAGRYR | 0.738 ± 0.039
FRDEGYCFADLV | 0.71 ± 0.094
FRFLFSPSRPPF | 0.633 ± 0.05
FRFTSSPVFSWL | 0.708 ± 0.014
FRLGIKFYTLAV | 0.514 ± 0.01
FRLGTMYDILPL | 0.69 ± 0.023
FRLPPRPPLTIP | 0.6726 ± 0.0062
FRLQSLFPYVVK | 0.604 ± 0.047
FRSHGHLSQNSY | 0.679 ± 0.044
FSASLLWFKEFW | 0.685 ± 0.024
FSASLPLSPSPA | 0.6784 ± 0.002
FSGGGRGLVGEV | 0.7 ± 0.039
FSGLFAFGRVVV | 0.687 ± 0.056
FSGLSPPRPEFV | 0.708 ± 0.0089
FSIRALGSLGVF | 0.693 ± 0.027

Sequence | protein stability index
FSLLPFFRHIFL | 0.637 ± 0.025
FSLPRHFRLYRR | 0.713 ± 0.036
FSLPSLLPDPPS | 0.579 ± 0.011
FSPHTPPRRLPL | 0.721 ± 0.066
FSPLTFLLSFPL | 0.679 ± 0.019
FSPSPPPPPFPL | 0.659 ± 0.024
FSSLLLMEVFLP | 0.686 ± 0.011
FSVGGLVDGRLW | 0.79 ± 0.026
FSVPPLPLPPRL | 0.757 ± 0.095
FSVSSSLSSFRA | 0.717 ± 0.03
FTSGNSWLAVFL | 0.731 ± 0.027
FVFSGLSGDFRG | 0.649 ± 0.054
FVFSIPPPPRPL | 0.59 ± 0.15
FVLARLTYSILI | 0.482 ± 0.047
FVLLGVRGGAGW | 0.698 ± 0.021
FVRWCFGRRVLG | 0.619 ± 0.0027
FVVGGGALGCYA | 0.661 ± 0.019
FVVSSLYSYSYR | 0.56 ± 0.015
FVWAGVGCWSEA | 0.723 ± 0.023
FVWSGVGGSGVG | 0.679 ± 0.028
FWERWDLFCGLC | 0.702 ± 0.1
